Data taken from the nanobody polyreactivity screen of Harvey et al. (2022).

Assay: yeast display, Sf9 membrane polyspecificity reagent, FACS + sequencing; frameworks hold sequencing errors
Method in brief: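 Synthetic nanobody libraries on Saccharomyces cerevisiae BJ5465 were galactose-induced for 36–48 hours, stained 1 hour at 4 °C with 10% biotinylated, detergent-solubilized Sf9 membrane reagent and enriched on streptavidin microbeads. FACS then separated cells into low and high (top ~1%) gates by anti-HA (expression) and streptavidin (reagent binding) fluorescence. Genes were colony-PCR amplified, MiSeq 2 × 250 sequenced and CDR-length filtered. A clone's polyreactivity label is that of its gate of origin.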
With “QVQLVESGGGLVQAGGRLRLSSAASGFIFYYYAMGWYREAPGKERELVAAISTDGGSTFYADSVKGRFTISRDNAKNTVYLQMNSLKPEDTAVYYCNAPYYGWGYWPLEYIRYEYWGQGTQVTVSS” the “polyreactivity (PSR sort gate)” value was “low polyreactivity”. For “QVQLVESGGGLVQAGGRLRLSSAASGSTFGYYAMGWYRQAPGKERELVAAISAGGGSTYYADSVKGRFTISRDNAKNTVYLQMISLKPEDTAVYYCAARGPHIPVKTYDYWGQGTQVTVSS”, the “polyreactivity (PSR sort gate)” value was “high polyreactivity”. For “QVQLVESGGGLVQAGGRLRLTCAASARTIVLNPMGWYRQAPGKERELVAAISSGGSTNYADSVKGRFTISRDNAKNTVYLQMNSLNPEDTAVYYCAGQDVNLYSAYYYWGQGTQVTVSS”, the “polyreactivity (PSR sort gate)” value was “low polyreactivity”. For “QVQLVESGGGLVQAGGRLRLTCAASGCTFFTNSMGWYRQAPGKERELFGAITVSGSTYYADSVKGRFTFSRDNAKNTVYLQMNSLNPEDTAVYYCAAVFWRRQYGYYIFTTLDYWGHGTQVTVSS”, the “polyreactivity (PSR sort gate)” value was “high polyreactivity”. For “QVQLVESGGGLVQAGGRLRLTCAASGLTFERHAMGWYSQARGKERDVVAAWSGGGTYYADSVKGRFTISRDNAKNTVYLHLNSLKPQDTAVYYCAADYRYYLSIGVNSWGQGTQVTVSS”, the “polyreactivity (PSR sort gate)” value was “low polyreactivity”. With “QVQLVESGGGLVQAGGRLRLTCAASGSIFGSYAMGWYRQEPGIERELVAAIRGRGGNTYYADSVKGRFTISRDNAKNTVYLQMNSLKPQDTAVYYCAAQSFAQYGWRYGYWGQGTQVTLSS” the “polyreactivity (PSR sort gate)” value was “high polyreactivity”. In the case of “QVQLVESGGGLVQAGGRLRVSCAASGRTFYYYGMGWYRQAPGKESELVATISWSGGSTYYADSVKGRFTISRDNAKNTVYLQMNSLKPEDTEVYYCAADGQFLYDHIEVDYWGQGTQVTVSS”, the “polyreactivity (PSR sort gate)” value was “low polyreactivity”. With “QVQLVESGGGLVQAGGSDRLSCAASGNTFYPNAMGWYRPAPGKERELVAAITTSGGTTYYADSVKGRFTISRDNAKNTVYLQMNSLKPEDTAVYYCAAYWSRDKYDYWGQGTQVTVSS” the “polyreactivity (PSR sort gate)” value was “low polyreactivity”. For “QVQLVESGGGLVQAGGSFRLTCAASGRIFSPNAMGWYRQATGKEREFVAAINDRGGNTYYADSVKGRFTISRDNAKNTVYLQMNSLKPEDTAVYYCAATVTVFYTRYYYWGQGTQVTVSS”, the “polyreactivity (PSR sort gate)” value was “high polyreactivity”. For “QVQLVESGGGLVQAGGSHRFSCAASGFTVWEYAMGLYRQAPGKERELVAAISRGTSTYYADSVKGRFTISRDNAKNTVYLQMNSLKPEDTAVYYCAAAPSYYPARHGYWGQGSQVTVSS”, the “polyreactivity (PSR sort gate)” value was “low polyreactivity”. With “QVQLVESGGGLVQAGGSHRLICAASGSTFNFNVMGWYRQEPGKERELDAAISSSGGNTYYADSVKGRFTISRDNAKNTVYLQMNSLKPEDTAVYYCADEYEEWYSVFLYDYWGQGTQVTVSS” the “polyreactivity (PSR sort gate)” value was “high polyreactivity”. With “QVQLVESGGGLVQAGGSHRLRCAASGRIFWSNTMGWYRQAPGKERELVAAISGRGGSTYYADSVKGRFTISRDNAKNTVYLQMNSLKPEDTAVYYCAARYPAYYEAYDYWGQGTQVTVSS” the “polyreactivity (PSR sort gate)” value was “low polyreactivity”. With “QVQLVESGGGLVQAGGSHRLRCAAYGFIFIYAMGRYRQAPGKQRELVASIESGVSTDYADSVKGRFTISRDNAKNSVYFQMNSLKQEDTAVYYCAADQWSSLNYDYWGQGSQVTVSS” the “polyreactivity (PSR sort gate)” value was “low polyreactivity”. For “QVQLVESGGGLVQAGGSHRLSCAASGFIFRWYAMGWYRQAPGKERELVAAISRSGDSTYYADSVKGRFTISRDNAKNTVYLQMNSLKPDDTAVYYCAADDRYYTYGYDYWGQGTQVTVSS”, the “polyreactivity (PSR sort gate)” value was “low polyreactivity”. In the case of “QVQLVESGGGLVQAGGSHRLSCAASGFTFGRYPMGWYRQAPGKERELVAAISSSGSSTYYSDSVKGRFTISRDNAKNTVYLQMNSLKQEDTAVYYCAAAIYVSDRHTYNYWGQGSQVTVSS”, the “polyreactivity (PSR sort gate)” value was “high polyreactivity”. With “QVQLVESGGGLVQAGGSHRLSCAASGFTFTHYPMGWYRQAPGKERELVAAISTSGGSTYYADSVKGRFTISRDNAKNSVYLQMNSLKPEDTAVYYCAARRDGWVQWGYYYWGQGTQVTVSS” the “polyreactivity (PSR sort gate)” value was “low polyreactivity”. For “QVQLVESGGGLVQAGGSHRLSCAASGIIFRGYPMGWYRPAPGIERELVASITRRRGSTRYADSVKGRFTISRDNAKNTVYLQMNSLKPEDTAVYYCAAVGVGKTSTAYGYWGQGTQVTVSS”, the “polyreactivity (PSR sort gate)” value was “high polyreactivity”. For “QVQLVESGGGLVQAGGSHRLSCAASGLTFRRNAMGWYRQAPGKERELVAAISGSGGSTYYADSVKGRFTISRDNAKNTVYLQMNSLKPEDTAVYYCAADDGIVAYGYWGQGTQVTVSS”, the “polyreactivity (PSR sort gate)” value was “high polyreactivity”. In the case of “QVQLVESGGGLVQAGGSHRLSCAASGLTLQRYTLGSYRQAPGKQSELVAAISRSGGGTYYADSVKGRFTISRDNAKNTVYLQMNSVKPEDTAVYYCAARGYTSYKHFGYWGQGTQVTVSS”, the “polyreactivity (PSR sort gate)” value was “high polyreactivity”. For “QVQLVESGGGLVQAGGSHRLSCAASGRIFAHNAMGWYSQAPGKERELVAAITWSGGSTYYADSVKGRFTISRDNAKNTVYLQMNSLKPEDTAVYYCNTDSHGHLYNYWGQGTQVTVSS”, the “polyreactivity (PSR sort gate)” value was “low polyreactivity”. For “QVQLVESGGGLVQAGGSHRLSCAASGRIFALNAMGWYRQAPGKERELVDAIDTSSGDTYYADSVKGRFTISRDNAKNTVNLQMNCLKPEDTAVYYCAAEGLSPYAYVFSNYDYWGQGTQVTVSS”, the “polyreactivity (PSR sort gate)” value was “low polyreactivity”. In the case of “QVQLVESGGGLVQAGGSHRLSCAASGRIFGTYTMGWYRHAPGKERELVASIRFGGSTYYADSVKGRYTISRDNAKNTVYLQMNSLKPEDTAVYYCNRVYGYNRRYGYWGQGTQVTVSS”, the “polyreactivity (PSR sort gate)” value was “high polyreactivity”. With “QVQLVESGGGLVQAGGSHRLSCAASGRIFSDYAMGWYRQAPGKERELVAAITRDGSTNYADSVKGLFTISRDNAKNTVYLQLNSLKPEDTAVYYCAAEGRRGGKDYDYWGQGTQVTVSS” the “polyreactivity (PSR sort gate)” value was “high polyreactivity”. In the case of “QVQLVESGGGLVQAGGSHRLSCAASGRIFSPYAMGWYRRAPGKERELVAAISYDDGITYYADSVKGRFTISRDNAKNTVYLQMNSLKPEDTAVYYCAADCVTRPAGDYWGQGTQVTVSS”, the “polyreactivity (PSR sort gate)” value was “low polyreactivity”. In the case of “QVQLVESGGGLVQAGGSHRLSCAASGRIIWWYAMGWYRQAPGKEREFVASISSTGSTSYADSVKGRFTISRDNAKITVYFQMNILKPEDTAVYYCAKEGIRHQDYNLSNDYWGQGTHVTVSS”, the “polyreactivity (PSR sort gate)” value was “low polyreactivity”. With “QVQLVESGGGLVQAGGSHRLSCAASGRTFGYYAMGWYRQAPGKEREFVAAISWSGGSTYYADTVKGRFTISRDNAKNTVYLEMNSLKPEYTAVYYCATDTTYYAGSWYGYWGQGTQVTVSS” the “polyreactivity (PSR sort gate)” value was “low polyreactivity”. With “QVQLVESGGGLVQAGGSHRLSCAASGSIFLFNAMGWYRQAPGKERELVAAITSPTARTYYADSVKGRFTISRDIAKNTVYLQMNSLKPEDTAVYYCAARYRYAYGYGRGYSWGQGTQVTVSS” the “polyreactivity (PSR sort gate)” value was “high polyreactivity”. For “QVQLVESGGGLVQAGGSHRLSCAASGSIFNLYTMGWYIQAPGKERELVAAIRWSGGRTYYADSVKGRFTISRDNAKNTVYLQMNSLKAEDTAVYYCAVRRVVARYDHWGQGTQVTVSS”, the “polyreactivity (PSR sort gate)” value was “low polyreactivity”. In the case of “QVQLVESGGGLVQAGGSHRLSCAASGSIFPSYAKGWYRQAPGKERELVATIGRGGTTNYADSVKGRFTISRDNAKNTVYLQMNSLKPEDTAVYYCNAERIWRYKYGYDYWGQGTQVTVSS”, the “polyreactivity (PSR sort gate)” value was “high polyreactivity”. For “QVQLVESGGGLVQAGGSHRLSCAASGSIFTAYALGWYRQATGKARELVAAIDVSGDSTYYADSVKGRFTISRDNAKKTVYLQMNSLKPEDTAVYYCKAEYRVNKEYDYWGQGTQVTVSS”, the “polyreactivity (PSR sort gate)” value was “low polyreactivity”. With “QVQLVESGGGLVQAGGSHRLSCAASGSIFYAYAMGWYRQAPGKERELVAAITGSGGRTYYADSVKGRFTISRDNAKNTVYLQMNSLKPEDTAVYYCNAYYYRGSSYGYWGQGTQVTVSS” the “polyreactivity (PSR sort gate)” value was “high polyreactivity”. With “QVQLVESGGGLVQAGGSHRLSCAASGSIFYYYTMGWYRQAPGKERELVASITGGGSTYYADSVKGRFTISRDHAKNTVYLQMNSLKPEDTAVYYCAAYSLRPRWRREYDYWGQGTQVTVSS” the “polyreactivity (PSR sort gate)” value was “high polyreactivity”. With “QVQLVESGGGLVQAGGSHRLSCAASGSTFDYYAMGWYRQAPGKEREFVASINWNGARTYYADSVKGRFTNSRDNAKNTVYLQMNSLKPEDTAVYYCAKISRTYYRYDYWGQGTQVTVSS” the “polyreactivity (PSR sort gate)” value was “high polyreactivity”. With “QVQLVESGGGLVQAGGSHRLSCAASGSTFRYYPMGWYRQAPGKERELVARITSRAGRTYYADSVKGRFTISRDNAKNTVYLQMNSVKPEDTAVYYCNANRFRRYDWGQGTQVTVSS” the “polyreactivity (PSR sort gate)” value was “high polyreactivity”. In the case of “QVQLVESGGGLVQAGGSHRLSCAASGSTFSWNTMGWYRQAPGKERELVASITRSDGSTYADSEKGRFTISRDNAKNTVYLQMNSLKPEDTAVYYCNADPYLYLYLNYDYWGQGTQVTVSS”, the “polyreactivity (PSR sort gate)” value was “low polyreactivity”. In the case of “QVQLVESGGGLVQAGGSHRLSCAASGSTLSSYAMGWYRQAPGKERELVAAISSSSGSTYYADSVKGRFTISRDNAKNTVYLQMNSLKPEDTAVYYCAADFRYWGQGTQVTVSS”, the “polyreactivity (PSR sort gate)” value was “low polyreactivity”. In the case of “QVQLVESGGGLVQAGGSHRLSCAASGTTIDYYAMGWYRQAPGKERELVAAISWSGGSTYYADSVKGRFTFSRDNAKNTVYLQMNSLKPEDTAVYYCAADSAFYTGSDYGWSDYDYWGQGTQVTVSS”, the “polyreactivity (PSR sort gate)” value was “low polyreactivity”. With “QVQLVESGGGLVQAGGSHRLSCAASGYTFARNAMGCDRQAPGKDRELVAAINWSGTNTYYADSVKGRFTISRDSAMNTVYLQMNSLKPEDTAVYYCAKDLYFSGYEFDYWGQGTQVTVSS” the “polyreactivity (PSR sort gate)” value was “low polyreactivity”. With “QVQLVESGGGLVQAGGSHRLSCAASGYTFARYAMGWYRQAPGKERELVAAISRSGGGTYYADSVKGRFTISRDNAKNTVYLQMNSLKPEDTAVYYCATDRVQGLGRFDYWGQGTQVTVSS” the “polyreactivity (PSR sort gate)” value was “high polyreactivity”. For “QVQLVESGGGLVQAGGSHRLSCAATGIIFARNAMGWYRQAPGKERELVAGINGGRTNYADSVKGRFTISRDNAKNTVYLQMNSLKPEDTAVYYCAARLGRVKYDHWGQGTQVTVSS”, the “polyreactivity (PSR sort gate)” value was “high polyreactivity”. In the case of “QVQLVESGGGLVQAGGSHRLSCDASGRIFGPYAMGWYRQAPGKESELVATISWRGARTYYADSVKGRFTISRDNAKNTVYLQMNSLKPEDTAVDYCAATFYYSARFDYWGQGTQVTVSS”, the “polyreactivity (PSR sort gate)” value was “high polyreactivity”.
